According to the supplement of paper PMC11908140:

B1: library; numbered along this chain (parent)
chain: MRKPRAAVGSGHRKQAASQEGRQKHAKNNSQAKPSACDGLARQPEEVVLQASVSSYHLFRDVAEVTAFRGSLLSWYDQEKRDLPWRRRAEDEMDLDRRAYAVWVSEVMLQQTQVATVINYYTGWMQKWPTLQDLASASLEEVNQLWAGLGYYSRGRRLQEGARKVVEELGGHMPRTAETLQQLLPGVGRYTAGAIASIAFGQATGVVDGNVARVLCRVRAIGADPSSTLVSQQLWGLAQQLVDPARPGDFNQAAMELGATVCTPQRPLCSQCPVESLCRARQRVEQEQLLASGSLSGSPDVEECAPNTGQCHLCLPPSEPWDQTLGVVNFPRKASRKPPREESSATCVLEQPGALGAQILLVQRPNSGLLAGLWEFPSVTWEPSEQLQRKALLQELQRWAGPLPATHLRHLGEVVHTFSHIKLTYQVYGLALEGQTPVTTVPPGARWLTQEEFHTAAVSTAMKKVFRVYQGQQPGTCMGSKRSQVSSPCSRKKPRMGQQVLDNFFRSHISTDAHSLNSAAQ

Variants of: B1
Test: 8OG:A repair function score (normalized; synonymous = 0, nonsense = -1) (normalized log-likelihood score); higher = more repair activity (WT-like)
Conditions: with 8OG:A DNA repair reporter (GFP) in HEK-293 MUTYH KO cells
In short: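 GFP+ (repair) and GFP− bins of viable mCherry+ cells were collected at 72 h from MUTYH knockout HEK-293 cells bearing lentiviral MUTYH cDNA NNN codon-scan libraries in 10 pg/ml doxycycline, co-transfected with an 8OG:A GFP repair reporter and mCherry. Tile amplicons were sequenced, and per-tile Rosace fitness scores were normalized to a repair function score anchored on synonymous and nonsense distributions. Synonymous medians were set to 0 and nonsense to -1, with variants under 300 counts per million at the start removed.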
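Note: cells sorted at 72 h after reporter transfection.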

8OG:A repair function score, by site and new letter:
Q288: C -0.0156; M -0.03; F -0.016; P -0.036; D -0.0736; R -0.00978; K -0.0373; G -0.0129; L -0.0159; A 0.00699; V -0.068; Y -0.0255; S -0.0113; T 0.00195; W -0.0268; E -0.0177; N 0.0202; I -0.0801; H 0.00465
S294: T 0.00194; D -0.0514; M -0.0115; G -0.00188; C -0.00327; L -0.0244; F -0.0489; N 0.0126; A -0.012; W -0.0117; R -0.00624; I 0.00404; E 0.00208; P -0.0152; H -0.0171; Q -0.0283; K -0.0502; Y -0.0109; V -0.0111
Q286: N 0.0116; R 0.00446; S -0.023; Y -0.0193; V -0.0346; T -0.00617; A -0.00891; M -0.0133; F -0.00865; C -0.00905; K -0.000545; E -0.0273; P -0.093; L -0.0175; G -0.0661; H -0.0639; D -0.0961; I -0.0426; W -7.92e-05
E303: C -0.0302; L -0.0849; I -0.101; M 0.000479; A -0.0517; K -0.0605; G -0.0952; H -0.102; F -0.112; D -0.0577
L295: V 0.0106; T -0.00105; S -0.0013; W -0.0272; P 0.0289; C -0.0222; Q -0.0618; A -0.00496; D -0.0433; I 0.00398; Y -0.0185; R -0.0249; F -0.0139; M -0.0314; K -0.0388; E -0.0096; N -0.00265; H -0.0248
S298: P 0.0228; T 0.00821; W -0.00249; N -0.0213; Q -0.0174; L 0.0173; C -0.0366; E -0.0588; M -0.0331; I 0.0307; A -0.000852; R -0.0386; K -0.0342; F -0.0178; D -0.0341; Y -0.0154; V 0.00493; H 0.0283; G 0.0202
E287: D -0.0111; R -0.0601; S 0.005; Q -0.114; A -0.017; T -0.00299; P -0.121; H -0.047; M 0.0384; C -0.037; N -0.0363; Y -0.00218; G -0.0256; L -0.0229; W -0.0668; V -0.04; F -0.0154; I -0.038; K -0.0128
G293: P -0.0254; C -0.0307; N -0.03; V -0.0545; T -0.0505; Y -0.0734; F -0.0692; S -0.0376; E -0.0308; R -0.00692; L -0.0631; W 0.000227; Q -0.00725; A -0.0268; M -0.0432; K -0.0447; D -0.124; I -0.0531; H -0.05
L289: F -0.00169; P -0.0119; T 0.0028; Q 0.015; N -0.057; K -0.0314; E -0.00394; S -0.0139; D -0.0394; V -0.0422; G -0.00218; A 0.00592; M -0.0277; R -0.0177; I 0.00652; W -0.0271; H 0.0106; C -0.0659; Y -0.00792
P299: N -0.099; I -0.00528; F 0.00405; H 0.0118; Q -0.00604; T -0.0424; G -0.0369; V -0.0192; L -0.0164; E -0.036; K -0.0515; D 0.0184; R -0.000753; W -0.0506; A -0.0132; S -0.0568; Y -0.00692; C -0.0402; M -0.0166
E285: W 0.0108; Y -0.0542
D300: G -0.148; W -0.16; E -0.0547; N -0.0764; S -0.139; V -0.0916; Q -0.112; F -0.255; H -0.0192; I -0.191; M -0.0873; C -0.0631; L -0.189; R -0.291; K -0.325; P -0.0407; T -0.109; A -0.149; Y -0.121
S296: W 0.0254; R 0.0309; T -0.0451; H -0.0357; G -0.0331; D 0.0216; A -0.0202; E -0.0247; C -0.0117; V 0.0116; P -0.00535; I -0.0485; Y 0.0195; N -0.0281; Q -0.00136; M -0.0125; K -0.0357; L -0.0062; F -0.00655
V301: M -0.126; K -0.283; P -0.31; W -0.211; E -0.439; A -0.249; S -0.344; Y -0.219; R -0.275; C -0.217; F -0.175; N -0.386; L -0.0363; I -0.0154; G -0.279; Q -0.242; D -0.39; H -0.166; T -0.284
S292: C -0.0199; K -0.0316; T -0.0314; E -0.0389; P -0.0306; N -0.0335; G -0.00959; I 0.000296; L -0.0154; R -0.0254; H -0.00367; V -0.0158; F -0.0271; Y 0.00788; M -0.0481; D -0.0297; A -0.0285; W -0.0286; Q -0.0703
L290: P -0.0572; K 0.0241; H -0.0116; S -0.022; D -0.0753; I 0.0122; A -0.0163; E -0.0564; N 0.00556; Y -0.0918; G -0.0171; M -0.0856; C -0.0194; W -0.0672; F -0.0363; V -0.0591; T 0.0127; Q -0.0401; R 0.0252
A291: P -0.0656; F -0.0509; T -0.0451; K 0.00353; R -0.0282; W -0.0221; E -0.125; S -0.000102; Q 0.00288; L -0.0339; I -0.0181; D -0.119; H -0.0755; C -0.0481; V -0.0187; M -0.0586; N 0.0139; G -0.0909; Y 0.0195
E302: M -0.216; S -0.307; H -0.259; T -0.238; A -0.273; P -0.223; C -0.32; F -0.253; Q -0.207; D -0.367; W -0.215; I -0.284; N -0.316; L -0.236; V -0.232; R -0.254; K -0.367; Y -0.246; G -0.316
G297: Q -0.0223; I -0.0605; H 0.00021; C 0.00942; R -0.0667; Y -0.0582; T 0.0201; L -0.000773; F 0.016; N -0.00835; P -0.0639; K 0.0192; M -0.00568; S -0.00596; W -0.206; E -0.0194; D -0.0132; A -0.00898; V 0.0126
